{
  "source": "patent US20210054094A1",
  "about": "(Hoffmann-La Roche, published 2021)",
  "binders": {"B1": {"name": "P1AE5746 (antibody, V domains shown)", "VH": "QVQLVESGGGVVQPGRSLRLSCAASGFSFSNYGMAWVRQAPGKGLEWVASISTGGGNTYYADSVKGRFTISRDNSKNTLYLQMNSLRAEDTAVYYCTRHDRGGLYWGQGTMVTVSS", "VL": "DIVMTQSPLSLPVTPGEPASISCRSSKSLLHSNGITYVYWYLQKPGQSPQLLIYRMSNRASGVPDRFSGSGSGTDFTLKISRVEAEDVGVYHCGQLLENPYTFGQGTKLEIK"}, "B2": {"name": "P1AE5742 (antibody, V domains shown)", "VH": "EVQLVESGGGVVQPGRSLRLSCAASGFSFSNYGMAWVRQAPGKGLEWVASISTGGGNTYYRDSVKGRFTISRDNAKNTLYLQMNSLRAEDTAVYYCTRHDRGGLYWGQGTMVTVSS", "VL": "DIVMTQSPDSLAVSLGERATINCKSSKSLLHSNGITYVYWYQQKPGQPPKLLIYRMSNLASGVPDRFSGSGSGTDFTLTISSLQAEDVAVYHCGQLLENPYTFGQGTKLEIK"}, "B3": {"name": "P1AE5743 (antibody, V domains shown)", "VH": "EVQLVESGGGVVQPGRSLRLSCAASGFSFSNYGMAWVRQAPGKGLEWVASISTGGGNTYYRDSVKGRFTISRDNAKNTLYLQMNSLRAEDTAVYYCTRHDRGGLYWGQGTMVTVSS", "VL": "EIVLTQSPGTLSLSPGERATLSCRASKSLLHSNGITYVYWYQQKPGQAPRLLIYRMSNLASGIPDRFSGSGSGTDFTLTISRLEPEDFAVYHCGQLLENPYTFGQGTKLEIK"}, "B4": {"name": "P1AE5760 (antibody, V domains shown)", "VH": "EVQLVESGGGLVQPGGSLRLSCAASGFSFSNYGMAWVRQAPGKGLEWVASISTGGGNTYYADSVKGRFTISRDNAKNTLYLQMNSLRAEDTAVYYCTRHDRGGLYWGQGTMVTVSS", "VL": "DIVMTQSPLSLPVTPGEPASISCRSSKSLLHSNGITYVYWYLQKPGQSPQVLIYRMSNLASGVPDRFSGSGSGTDFTLKISRVEAEDVGVYHCGQLLENPYTFGQGTKLEIK"}, "B5": {"name": "P1AE5752 (antibody, V domains shown)", "VH": "EVQLVESGGGVVQPGRSLRLSCAASGFSFSNYGMAWVRQAPGKGLEWVASISTGGGNTYYADSVKGRFTISRDNAKNTLYLQMNSLRAEDTAVYYCTRHDRGGLYWGQGTMVTVSS", "VL": "DIVMTQSPLSLPVTPGEPASISCRSSKSLLHSNGITYVYWYLQKPGQSPQLLIYRMSNRASGVPDRFSGSGSGTDFTLKISRVEAEDVGVYHCGQLLENPYTFGQGTKLEIK"}, "B6": {"name": "P1AE5753 (antibody, V domains shown)", "VH": "EVQLVESGGGVVQPGRSLRLSCAASGFSFSNYGMAWVRQAPGKGLEWVASISTGGGNTYYADSVKGRFTISRDNAKNTLYLQMNSLRAEDTAVYYCTRHDRGGLYWGQGTMVTVSS", "VL": "DIVMTQSPDSLAVSLGERATINCKSSKSLLHSNGITYVYWYQQKPGQPPKLLIYRMSNLASGVPDRFSGSGSGTDFTLTISSLQAEDVAVYHCGQLLENPYTFGQGTKLEIK"}, "B7": {"name": "P1AE5761 (antibody, V domains shown)", "VH": "EVQLVESGGGLVQPGGSLRLSCAASGFSFSNYGMAWVRQAPGKGLEWVASISTGGGNTYYADSVKGRFTISRDNAKNTLYLQMNSLRAEDTAVYYCTRHDRGGLYWGQGTMVTVSS", "VL": "DIVMTQSPLSLPVTPGEPASISCRSSKSLLHSNGITYVYWYLQKPGKSPQVLIYRMSNLASGVPDRFSGSGSGTDFTLKISRVEAEDVGVYHCGQLLENPYTFGQGTKLEIK"}, "B8": {"name": "P1AE5747 (antibody, V domains shown)", "VH": "QVQLVESGGGVVQPGRSLRLSCAASGFSFSNYGMAWVRQAPGKGLEWVASISTGGGNTYYADSVKGRFTISRDNSKNTLYLQMNSLRAEDTAVYYCTRHDRGGLYWGQGTMVTVSS", "VL": "DIVMTQSPDSLAVSLGERATINCKSSKSLLHSNGITYVYWYQQKPGQPPKLLIYRMSNLASGVPDRFSGSGSGTDFTLTISSLQAEDVAVYHCGQLLENPYTFGQGTKLEIK"}, "B9": {"name": "P1AE5762 (antibody, V domains shown)", "VH": "EVQLVESGGGLVQPGGSLRLSCAASGFSFSNYGMAWVRQAPGKGLEWVASISTGGGNTYYADSVKGRFTISRDNAKNTLYLQMNSLRAEDTAVYYCTRHDRGGLYWGQGTMVTVSS", "VL": "DIVMTQSPLSLPVTPGEPASISCRSSKSLLHSNGITYVYWYLQKPGQSPQLLIYRMSNRASGVPDRFSGSGSGTDFTLKISRVEAEDVGVYHCGQLLENPYTFGQGTKLEIK"}, "B10": {"name": "P1AE5737 (antibody, V domains shown)", "VH": "QVQLVESGGGVVQPGRSLRLSCAASGFSFSNYGMAWVRQAPGKGLEWVASISTGGGNTYYRDSVKGRFTISRDNSKNTLYLQMNSLRAEDTAVYYCTRHDRGGLYWGQGTMVTVSS", "VL": "DIVMTQSPDSLAVSLGERATINCKSSKSLLHSNGITYVYWYQQKPGQPPKLLIYRMSNLASGVPDRFSGSGSGTDFTLTISSLQAEDVAVYHCGQLLENPYTFGQGTKLEIK"}, "B11": {"name": "P1AE5763 (antibody, V domains shown)", "VH": "EVQLVESGGGLVQPGGSLRLSCAASGFSFSNYGMAWVRQAPGKGLEWVASISTGGGNTYYADSVKGRFTISRDNAKNTLYLQMNSLRAEDTAVYYCTRHDRGGLYWGQGTMVTVSS", "VL": "DIVMTQSPDSLAVSLGERATINCKSSKSLLHSNGITYVYWYQQKPGQPPKLLIYRMSNLASGVPDRFSGSGSGTDFTLTISSLQAEDVAVYHCGQLLENPYTFGQGTKLEIK"}, "B12": {"name": "P1AE5758 (antibody, V domains shown)", "VH": "EVQLVESGGGLVQPGGSLRLSCAASGFSFSNYGMAWVRQAPGKGLEWVASISTGGGNTYYRDSVKGRFTISRDNAKNTLYLQMNSLRAEDTAVYYCTRHDRGGLYWGQGTMVTVSS", "VL": "DIVMTQSPDSLAVSLGERATINCKSSKSLLHSNGITYVYWYQQKPGQPPKLLIYRMSNLASGVPDRFSGSGSGTDFTLTISSLQAEDVAVYHCGQLLENPYTFGQGTKLEIK"}, "B13": {"name": "P1AE5738 (antibody, V domains shown)", "VH": "QVQLVESGGGVVQPGRSLRLSCAASGFSFSNYGMAWVRQAPGKGLEWVASISTGGGNTYYRDSVKGRFTISRDNSKNTLYLQMNSLRAEDTAVYYCTRHDRGGLYWGQGTMVTVSS", "VL": "EIVLTQSPGTLSLSPGERATLSCRASKSLLHSNGITYVYWYQQKPGQAPRLLIYRMSNLASGIPDRFSGSGSGTDFTLTISRLEPEDFAVYHCGQLLENPYTFGQGTKLEIK"}, "B14": {"name": "P1AE5756 (antibody, V domains shown)", "VH": "EVQLVESGGGLVQPGGSLRLSCAASGFSFSNYGMAWVRQAPGKGLEWVASISTGGGNTYYRDSVKGRFTISRDNAKNTLYLQMNSLRAEDTAVYYCTRHDRGGLYWGQGTMVTVSS", "VL": "DIVMTQSPLSLPVTPGEPASISCRSSKSLLHSNGITYVYWYLQKPGKSPQVLIYRMSNLASGVPDRFSGSGSGTDFTLKISRVEAEDVGVYHCGQLLENPYTFGQGTKLEIK"}, "B15": {"name": "P1AE5750 (antibody, V domains shown)", "VH": "EVQLVESGGGVVQPGRSLRLSCAASGFSFSNYGMAWVRQAPGKGLEWVASISTGGGNTYYADSVKGRFTISRDNAKNTLYLQMNSLRAEDTAVYYCTRHDRGGLYWGQGTMVTVSS", "VL": "DIVMTQSPLSLPVTPGEPASISCRSSKSLLHSNGITYVYWYLQKPGQSPQVLIYRMSNLASGVPDRFSGSGSGTDFTLKISRVEAEDVGVYHCGQLLENPYTFGQGTKLEIK"}, "B16": {"name": "P1AE5757 (antibody, V domains shown)", "VH": "EVQLVESGGGLVQPGGSLRLSCAASGFSFSNYGMAWVRQAPGKGLEWVASISTGGGNTYYRDSVKGRFTISRDNAKNTLYLQMNSLRAEDTAVYYCTRHDRGGLYWGQGTMVTVSS", "VL": "DIVMTQSPLSLPVTPGEPASISCRSSKSLLHSNGITYVYWYLQKPGQSPQLLIYRMSNRASGVPDRFSGSGSGTDFTLKISRVEAEDVGVYHCGQLLENPYTFGQGTKLEIK"}, "B17": {"name": "P1AE5755 (antibody, V domains shown)", "VH": "EVQLVESGGGLVQPGGSLRLSCAASGFSFSNYGMAWVRQAPGKGLEWVASISTGGGNTYYRDSVKGRFTISRDNAKNTLYLQMNSLRAEDTAVYYCTRHDRGGLYWGQGTMVTVSS", "VL": "DIVMTQSPLSLPVTPGEPASISCRSSKSLLHSNGITYVYWYLQKPGQSPQVLIYRMSNLASGVPDRFSGSGSGTDFTLKISRVEAEDVGVYHCGQLLENPYTFGQGTKLEIK"}, "B18": {"name": "P1AE5754 (antibody, V domains shown)", "VH": "EVQLVESGGGVVQPGRSLRLSCAASGFSFSNYGMAWVRQAPGKGLEWVASISTGGGNTYYADSVKGRFTISRDNAKNTLYLQMNSLRAEDTAVYYCTRHDRGGLYWGQGTMVTVSS", "VL": "EIVLTQSPGTLSLSPGERATLSCRASKSLLHSNGITYVYWYQQKPGQAPRLLIYRMSNLASGIPDRFSGSGSGTDFTLTISRLEPEDFAVYHCGQLLENPYTFGQGTKLEIK"}, "B19": {"name": "P1AE5751 (antibody, V domains shown)", "VH": "EVQLVESGGGVVQPGRSLRLSCAASGFSFSNYGMAWVRQAPGKGLEWVASISTGGGNTYYADSVKGRFTISRDNAKNTLYLQMNSLRAEDTAVYYCTRHDRGGLYWGQGTMVTVSS", "VL": "DIVMTQSPLSLPVTPGEPASISCRSSKSLLHSNGITYVYWYLQKPGKSPQVLIYRMSNLASGVPDRFSGSGSGTDFTLKISRVEAEDVGVYHCGQLLENPYTFGQGTKLEIK"}, "B20": {"name": "P1AE5749 (antibody, V domains shown)", "VH": "QVQLVESGGGVVQPGRSLRLSCAASGFSFSNYGMAWVRQAPGKGLEWVASISTGGGNTYYADSVKGRFTISRDNSKNTLYLQMNSLRAEDTAVYYCTRHDRGGLYWGQGTMVTVSS", "VL": "EIVLTQSPGTLSLSPGERATLSCRASKSLLHSNGITYVYWYQQKPGQAPRLLIYRMSNLASGIPDRFSGSGSGTDFTLTISRLEPEDFAVYHCGQLLENPYTFGQGTKLEIK"}},
  "data": [
    {"target": "human GPRC5D (human, UniProt Q9NZD1 1-345)", "sequence (Q9NZD1 whole entry)": "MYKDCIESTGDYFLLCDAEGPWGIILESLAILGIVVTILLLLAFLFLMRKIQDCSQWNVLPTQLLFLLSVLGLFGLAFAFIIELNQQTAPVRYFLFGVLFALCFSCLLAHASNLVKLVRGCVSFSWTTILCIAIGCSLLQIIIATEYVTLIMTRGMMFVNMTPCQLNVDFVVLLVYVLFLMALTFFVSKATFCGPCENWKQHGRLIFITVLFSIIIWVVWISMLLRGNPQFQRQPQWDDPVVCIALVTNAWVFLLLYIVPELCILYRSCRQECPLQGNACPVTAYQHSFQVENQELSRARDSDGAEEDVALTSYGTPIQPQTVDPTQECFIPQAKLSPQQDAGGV", "test": "cell-based or functional assay", "units": {"CAR-J2 EC50 (PGLALA-CAR-J activation, L363 target cells)": "µg/mL"}, "values": [
      {"binder": "B1", "CAR-J2 EC50 (PGLALA-CAR-J activation, L363 target cells)": 0.514},
      {"binder": "B2", "CAR-J2 EC50 (PGLALA-CAR-J activation, L363 target cells)": 0.0619},
      {"binder": "B3", "CAR-J2 EC50 (PGLALA-CAR-J activation, L363 target cells)": 0.583},
      {"binder": "B4", "CAR-J2 EC50 (PGLALA-CAR-J activation, L363 target cells)": 0.19},
      {"binder": "B5", "CAR-J2 EC50 (PGLALA-CAR-J activation, L363 target cells)": 0.509},
      {"binder": "B6", "CAR-J2 EC50 (PGLALA-CAR-J activation, L363 target cells)": 0.03},
      {"binder": "B7", "CAR-J2 EC50 (PGLALA-CAR-J activation, L363 target cells)": 0.0746},
      {"binder": "B8", "CAR-J2 EC50 (PGLALA-CAR-J activation, L363 target cells)": 0.183},
      {"binder": "B9", "CAR-J2 EC50 (PGLALA-CAR-J activation, L363 target cells)": 0.0842},
      {"binder": "B10", "CAR-J2 EC50 (PGLALA-CAR-J activation, L363 target cells)": 0.00295},
      {"binder": "B11", "CAR-J2 EC50 (PGLALA-CAR-J activation, L363 target cells)": 0.00547},
      {"binder": "B12", "CAR-J2 EC50 (PGLALA-CAR-J activation, L363 target cells)": 0.19},
      {"binder": "B13", "CAR-J2 EC50 (PGLALA-CAR-J activation, L363 target cells)": 0.397},
      {"binder": "B14", "CAR-J2 EC50 (PGLALA-CAR-J activation, L363 target cells)": 0.17},
      {"binder": "B15", "CAR-J2 EC50 (PGLALA-CAR-J activation, L363 target cells)": 0.0206},
      {"binder": "B16", "CAR-J2 EC50 (PGLALA-CAR-J activation, L363 target cells)": 0.145},
      {"binder": "B17", "CAR-J2 EC50 (PGLALA-CAR-J activation, L363 target cells)": 0.152},
      {"binder": "B18", "CAR-J2 EC50 (PGLALA-CAR-J activation, L363 target cells)": 0.00889},
      {"binder": "B19", "CAR-J2 EC50 (PGLALA-CAR-J activation, L363 target cells)": 0.00644},
      {"binder": "B20", "CAR-J2 EC50 (PGLALA-CAR-J activation, L363 target cells)": 0.0826}
    ]}
  ]
}
